Residue numbers refer to the chain shown, from its start. Values belong to the binder of their own block, whether it stands above or below them.
How the values were obtained:
[1] = molecular target: T1, BCL11A-L (long isoform of BCL11A), wild-type, Q9H165-2; experiment: BRET assay; conditions: chain shown with the change; HEK293 cells; donor Renilla luciferase fusion, acceptor YFP fusion; n = 3; parent: est. 0.30; read off a plot
T1 chain: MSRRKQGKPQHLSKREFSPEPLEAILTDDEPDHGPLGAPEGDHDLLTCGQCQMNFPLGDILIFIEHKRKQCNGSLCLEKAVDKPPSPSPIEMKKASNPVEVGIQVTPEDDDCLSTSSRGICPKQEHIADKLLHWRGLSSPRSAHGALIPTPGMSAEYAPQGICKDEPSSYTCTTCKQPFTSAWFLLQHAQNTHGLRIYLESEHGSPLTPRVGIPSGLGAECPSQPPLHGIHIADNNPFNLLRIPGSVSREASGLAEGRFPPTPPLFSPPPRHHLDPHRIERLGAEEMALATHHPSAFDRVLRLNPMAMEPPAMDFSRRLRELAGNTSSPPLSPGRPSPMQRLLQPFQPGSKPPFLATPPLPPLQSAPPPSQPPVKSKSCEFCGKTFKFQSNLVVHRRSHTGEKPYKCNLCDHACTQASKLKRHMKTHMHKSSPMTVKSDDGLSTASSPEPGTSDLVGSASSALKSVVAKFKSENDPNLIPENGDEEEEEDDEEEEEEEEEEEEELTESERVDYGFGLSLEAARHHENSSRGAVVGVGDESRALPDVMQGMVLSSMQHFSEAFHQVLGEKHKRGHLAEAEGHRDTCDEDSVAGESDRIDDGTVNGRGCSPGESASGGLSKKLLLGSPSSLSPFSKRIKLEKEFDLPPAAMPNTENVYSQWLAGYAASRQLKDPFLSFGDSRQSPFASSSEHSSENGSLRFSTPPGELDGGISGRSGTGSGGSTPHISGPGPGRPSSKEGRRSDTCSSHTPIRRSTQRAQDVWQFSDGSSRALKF

[2] = molecular target: T2, BCL11A-S (short isoform of BCL11A), wild-type, Q9H165-3; experiment: BRET assay; conditions: chain shown with the change; HEK293 cells; donor Renilla luciferase fusion, acceptor YFP fusion; n = 3; parent: est. 0.36; read off a plot
T2 chain: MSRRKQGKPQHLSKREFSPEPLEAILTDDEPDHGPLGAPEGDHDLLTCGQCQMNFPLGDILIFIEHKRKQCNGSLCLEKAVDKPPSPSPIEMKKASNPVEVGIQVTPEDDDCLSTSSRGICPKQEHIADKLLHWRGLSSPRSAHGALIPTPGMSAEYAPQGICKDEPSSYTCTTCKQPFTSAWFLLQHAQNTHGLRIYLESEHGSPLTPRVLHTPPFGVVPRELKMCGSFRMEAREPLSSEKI

- response [1]: 0.11
- response [2]: 0.013
B1: BCL11A-L (long isoform of BCL11A), wild-type, Q9H165-2 p.His66Gln (protein)
chain: T1 chain with H66Q

- response [1]: 0.065
- response [2]: 0.009
B2: BCL11A-L (long isoform of BCL11A), wild-type, Q9H165-2 p.Cys48Phe (protein)
chain: T1 chain with C48F

- response [1]: 0.11
- response [2]: 0.001
B3: BCL11A-L (long isoform of BCL11A), wild-type, Q9H165-2 p.Thr47Pro (protein)
chain: T1 chain with T47P
